{"source": "the Immune Epitope Database (IEDB)", "key": {"HLA-A*01:01": {"target": "HLA-A*01:01", "assay": "IEDB peptide-MHC binding, purified MHC/competitive/radioactivity; filed as Kd, often an IC50 or EC50 that approximates it; ≥ and ≤ were set here for values at or beyond the usual limits of such assays"}, "HLA-A*26:01": {"target": "HLA-A*26:01", "assay": "IEDB peptide-MHC binding, purified MHC/competitive/radioactivity; filed as Kd, often an IC50 or EC50 that approximates it; ≥ and ≤ were set here for values at or beyond the usual limits of such assays"}, "HLA-A*29:02": {"target": "HLA-A*29:02", "assay": "IEDB peptide-MHC binding, purified MHC/competitive/radioactivity; filed as Kd, often an IC50 or EC50 that approximates it; ≥ and ≤ were set here for values at or beyond the usual limits of such assays"}, "HLA-A*30:01": {"target": "HLA-A*30:01", "assay": "IEDB peptide-MHC binding, purified MHC/competitive/radioactivity; filed as Kd, often an IC50 or EC50 that approximates it; ≥ and ≤ were set here for values at or beyond the usual limits of such assays", "conditions": "source organism: Lymphocytic choriomeningitis virus (strain Armstrong)"}, "HLA-A*30:02": {"target": "HLA-A*30:02", "assay": "IEDB peptide-MHC binding, purified MHC/competitive/radioactivity; filed as Kd, often an IC50 or EC50 that approximates it; ≥ and ≤ were set here for values at or beyond the usual limits of such assays"}, "HLA-A*32:01": {"target": "HLA-A*32:01", "assay": "IEDB peptide-MHC binding, purified MHC/competitive/radioactivity; filed as Kd, often an IC50 or EC50 that approximates it; ≥ and ≤ were set here for values at or beyond the usual limits of such assays"}, "HLA-B*40:01": {"target": "HLA-B*40:01", "assay": "IEDB peptide-MHC binding, purified MHC/competitive/radioactivity; filed as Kd, often an IC50 or EC50 that approximates it; ≥ and ≤ were set here for values at or beyond the usual limits of such assays", "conditions": "source organism: Dengue virus 3 Martinique/1243/1999"}, "HLA-B*44:02": {"target": "HLA-B*44:02", "assay": "IEDB peptide-MHC binding, purified MHC/competitive/radioactivity; filed as Kd, often an IC50 or EC50 that approximates it; ≥ and ≤ were set here for values at or beyond the usual limits of such assays", "conditions": "source organism: Dengue virus 3 Martinique/1243/1999"}, "HLA-B*44:03": {"target": "HLA-B*44:03", "assay": "IEDB peptide-MHC binding, purified MHC/competitive/radioactivity; filed as Kd, often an IC50 or EC50 that approximates it; ≥ and ≤ were set here for values at or beyond the usual limits of such assays", "conditions": "source organism: Dengue virus 3 Martinique/1243/1999"}, "HLA-A*02:01": {"target": "HLA-A*02:01", "assay": "IEDB peptide-MHC binding, purified MHC/competitive/fluorescence; filed as Kd, often an IC50 or EC50 that approximates it; ≥ and ≤ were set here for values at or beyond the usual limits of such assays"}, "HLA-B*51:01": {"target": "HLA-B*51:01", "assay": "IEDB peptide-MHC binding, purified MHC/competitive/radioactivity; filed as Kd, often an IC50 or EC50 that approximates it; ≥ and ≤ were set here for values at or beyond the usual limits of such assays"}, "HLA-A*23:01": {"target": "HLA-A*23:01", "assay": "IEDB peptide-MHC binding, purified MHC/competitive/radioactivity; filed as Kd, often an IC50 or EC50 that approximates it; ≥ and ≤ were set here for values at or beyond the usual limits of such assays"}, "HLA-A*24:02": {"target": "HLA-A*24:02", "assay": "IEDB peptide-MHC binding, purified MHC/competitive/radioactivity; filed as Kd, often an IC50 or EC50 that approximates it; ≥ and ≤ were set here for values at or beyond the usual limits of such assays"}, "HLA-B*08:01": {"target": "HLA-B*08:01", "assay": "IEDB peptide-MHC binding, purified MHC/competitive/radioactivity; filed as Kd, often an IC50 or EC50 that approximates it; ≥ and ≤ were set here for values at or beyond the usual limits of such assays", "conditions": "source organism: Vaccinia virus WR"}, "[1]": {"conditions": "source organism: Lymphocytic choriomeningitis virus (strain Armstrong)"}, "[2]": {"conditions": "source organism: Dengue virus 3 Martinique/1243/1999"}, "[3]": {"conditions": "source organism: SARS coronavirus Tor2"}, "[4]": {"conditions": "source organism: Vaccinia virus WR"}, "[5]": {"conditions": "source organism: Mammarenavirus lassaense"}}, "data": [{"sequence": "KVNTTIARY", "values": [{"measurement": "Kd", "setting": "HLA-A*01:01; [1]", "result": 1630, "unit": "nM"}, {"measurement": "Kd", "setting": "HLA-A*26:01; [1]", "result": 7460, "unit": "nM"}, {"measurement": "Kd", "setting": "HLA-A*29:02; [1]", "result": 100, "unit": "nM"}, {"measurement": "Kd", "setting": "HLA-A*30:01", "result": 934, "unit": "nM"}, {"measurement": "Kd", "setting": "HLA-A*30:02; [1]", "result": 5.93, "unit": "nM"}, {"measurement": "Kd", "setting": "HLA-A*32:01; [1]", "result": 634, "unit": "nM"}]}, {"sequence": "LEFFMMVLL", "values": [{"measurement": "Kd", "setting": "HLA-A*32:01; [2]", "result": 2040, "unit": "nM"}, {"measurement": "Kd", "setting": "HLA-B*40:01", "result": 13.1, "unit": "nM"}, {"measurement": "Kd", "setting": "HLA-B*44:02", "result": 10100, "unit": "nM"}, {"measurement": "Kd", "setting": "HLA-B*44:03", "result": 2640, "unit": "nM"}]}, {"sequence": "LEFFMMVLLI", "values": [{"measurement": "Kd", "setting": "HLA-B*40:01", "result": 12200, "unit": "nM"}, {"measurement": "Kd", "setting": "HLA-B*44:03", "result": 9210, "unit": "nM"}]}, {"sequence": "LLFLEDVEP", "values": [{"measurement": "Kd", "setting": "HLA-A*02:01; source organism: Horsepox virus", "result": "≥ 20000", "unit": "nM"}]}, {"sequence": "LPLFIFSLK", "values": [{"measurement": "Kd", "setting": "HLA-B*51:01; [2]", "result": 13100, "unit": "nM"}]}, {"sequence": "LYEQVVMDY", "values": [{"measurement": "Kd", "setting": "HLA-A*01:01; [3]", "result": 15100, "unit": "nM"}, {"measurement": "Kd", "setting": "HLA-A*23:01; [3]", "result": "≥ 58200", "unit": "nM"}, {"measurement": "Kd", "setting": "HLA-A*24:02; [3]", "result": "≥ 40500", "unit": "nM"}, {"measurement": "Kd", "setting": "HLA-A*26:01; [3]", "result": "≥ 22600", "unit": "nM"}, {"measurement": "Kd", "setting": "HLA-A*29:02; [3]", "result": 12.2, "unit": "nM"}, {"measurement": "Kd", "setting": "HLA-A*30:02; [3]", "result": 173, "unit": "nM"}]}, {"sequence": "MAFIAFLRFL", "values": [{"measurement": "Kd", "setting": "HLA-B*51:01; source organism: Dengue virus 1 Brazil/97-11/1997", "result": 16100, "unit": "nM"}]}, {"sequence": "MLMNHVANF", "values": [{"measurement": "Kd", "setting": "HLA-A*32:01; [4]", "result": 8.28, "unit": "nM"}, {"measurement": "Kd", "setting": "HLA-B*08:01", "result": 3.33, "unit": "nM"}]}, {"sequence": "MLVSQALNSV", "values": [{"measurement": "Kd", "setting": "HLA-A*02:01; source organism: Vaccinia virus Copenhagen", "result": 3.4, "unit": "nM"}]}, {"sequence": "MTNTMRNAI", "values": [{"measurement": "Kd", "setting": "HLA-A*32:01; [4]", "result": 106, "unit": "nM"}]}, {"sequence": "PEDPVEVALY", "values": [{"measurement": "Kd", "setting": "HLA-A*01:01; [5]", "result": "≥ 41000", "unit": "nM"}, {"measurement": "Kd", "setting": "HLA-A*23:01; [5]", "result": "≥ 70000", "unit": "nM"}, {"measurement": "Kd", "setting": "HLA-A*24:02; [5]", "result": "≥ 70300", "unit": "nM"}, {"measurement": "Kd", "setting": "HLA-A*26:01; [5]", "result": "≥ 69700", "unit": "nM"}, {"measurement": "Kd", "setting": "HLA-A*29:02; [5]", "result": "≥ 43400", "unit": "nM"}, {"measurement": "Kd", "setting": "HLA-A*30:02; [5]", "result": 1430, "unit": "nM"}]}, {"sequence": "QMYKTPTLKY", "values": [{"measurement": "Kd", "setting": "HLA-A*01:01; [3]", "result": 8920, "unit": "nM"}, {"measurement": "Kd", "setting": "HLA-A*23:01; [3]", "result": "≥ 70000", "unit": "nM"}, {"measurement": "Kd", "setting": "HLA-A*24:02; [3]", "result": "≥ 70300", "unit": "nM"}, {"measurement": "Kd", "setting": "HLA-A*26:01; [3]", "result": 3120, "unit": "nM"}, {"measurement": "Kd", "setting": "HLA-A*29:02; [3]", "result": 6.81, "unit": "nM"}, {"measurement": "Kd", "setting": "HLA-A*30:02; [3]", "result": 55.2, "unit": "nM"}]}]}
